Consider 1 molecule from patent US20140112930A1 (published 2014).

Common to all, as to assay: SPR 25C, hAng-2FD-mFc captured on anti-mFc, 100 nM analyte
In assay [1] the target is T1, wild-type Ang-2FD-mFc construct (human, UniProt O15123 282-496).
T1 construct: also called WT; hAng-2FD-mFc; not shown: mouse Fc
T1 sequence: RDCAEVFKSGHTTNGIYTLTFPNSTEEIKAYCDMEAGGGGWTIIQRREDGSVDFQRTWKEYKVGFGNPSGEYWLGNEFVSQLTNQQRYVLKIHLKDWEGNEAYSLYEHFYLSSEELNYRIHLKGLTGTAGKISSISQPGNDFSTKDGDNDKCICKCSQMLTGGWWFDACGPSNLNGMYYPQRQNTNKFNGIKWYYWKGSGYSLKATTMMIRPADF

In the next assay the target is T2, hAng-2FD-mFc S-417-I (human, UniProt O15123 282-496).
T2 construct: not shown: mouse Fc
T2 chain: T1 sequence with S136I

The next assay deals with T3, hAng-2FD-mFc K-432-N (human, UniProt O15123 282-496).
T3 construct: not shown: mouse Fc
T3 chain: T1 sequence with K151N

Another assay concerns the target T4, hAng-2FD-mFc I-434-M (human, UniProt O15123 282-496).
T4 construct: not shown: mouse Fc
T4 chain: T1 sequence with I153M

For another assay, the target named is T5, hAng-2FD-mFc N-467-G (human, UniProt O15123 282-496).
T5 construct: not shown: mouse Fc
T5 chain: T1 sequence with N186G

Another assay has as its target T6, hAng-2FD-mFc F-469-L (human, UniProt O15123 282-496).
T6 construct: not shown: mouse Fc
T6 chain: T1 sequence with F188L

For another assay, the target named is T7, hAng-2FD-mFc Y-475-H (human, UniProt O15123 282-496).
T7 construct: not shown: mouse Fc
T7 chain: T1 sequence with Y194H

Another assay addresses T8, hAng-2FD-mFc S-480-P (human, UniProt O15123 282-496).
T8 construct: not shown: mouse Fc
T8 chain: T1 sequence with S199P

Where a chain is given by its changes, count along the chain named.

B1: H1H744N (antibody, V domains shown)
VH: QVQLVQSGVEVKKPGASVKVSCKTSGYTFSNNGFSWVRQAPGQGLEWLGWISGYNGNTNYAQKFQGRVTMTTDTSTSTAYMELRTLRSDDTAVYYCARDQDYSNFHWLDPWGQGTLVTVAS
VL: DIQMTQSPSSVSASVGDRVIITCRASQGLSSWLAWYQQKPGTAPKLLIHSASSLQTGVPSRFSGSGSGTEFALTINSLQPEDFGTYYCQQANSFPLTFGGGTRVEIK
As for B1, the Kd (commonly a measure of binding affinity in units of concentration) in assay [1] turned out to be 39.8 pM; in the assay with hAng-2FD-mFc S-417-I it was 51.2 pM; in the assay with hAng-2FD-mFc K-432-N, 48.7 pM; with hAng-2FD-mFc I-434-M, 31.8 pM; in the assay with hAng-2FD-mFc N-467-G it was 77.2 pM; in the assay with hAng-2FD-mFc F-469-L, 195 pM. Further, the Kd with hAng-2FD-mFc Y-475-H came out at 306 pM; in the assay with hAng-2FD-mFc S-480-P it was 22.5 pM. For the same molecule, the RU in assay [1] was 213 RU; with hAng-2FD-mFc S-417-I, 127 RU; in the assay with hAng-2FD-mFc K-432-N, 137 RU; with hAng-2FD-mFc I-434-M, 213 RU; in the assay with hAng-2FD-mFc N-467-G, 139 RU; in the assay with hAng-2FD-mFc F-469-L, 180 RU. In addition, the RU in the assay with hAng-2FD-mFc Y-475-H amounted to 247 RU; with hAng-2FD-mFc S-480-P, 228 RU. For the same molecule, the “T ½” value in assay [1] was determined as 15.1 h; in the assay with hAng-2FD-mFc S-417-I, 26.5 h; with hAng-2FD-mFc K-432-N, 28.2 h; with hAng-2FD-mFc I-434-M, 43.1 h; with hAng-2FD-mFc N-467-G, 16.9 h; in the assay with hAng-2FD-mFc F-469-L it was 3.95 h. In addition, the “T ½” value was 2.27 h with hAng-2FD-mFc Y-475-H and 35.5 h in the assay with hAng-2FD-mFc S-480-P.
